Among the data in patent US20100015155A1 are Kd values, retold here.

Usually Kd stands for a measure of binding affinity in units of concentration.

The target in this experiment is human soluble Abeta (1-40) (human) (UniProt P05067). Kind of experiment: KinExA equilibrium, antigen on sepharose beads, soluble Abeta (1-40) titrated, 37 C.
Sequence of human soluble Abeta (1-40) (human) (P05067 672-711 limits assumed): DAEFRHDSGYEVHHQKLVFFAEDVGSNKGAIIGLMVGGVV

“murine 266 Fab (Fab fragment of the murine monoclonal antibody designated 266)” came in with a dissociation constant (Kd) of 0.24 nM.
